{"source": "patent US20240158785A1", "about": "(Chugai, published 2024)", "key": {"human IL-6 receptor [1]": {"target": "T1, human IL-6 receptor (human, UniProt P08887 20-357, limits assumed, biotin-labeled in the ELISA and Octet assays (position not given))", "T1 construct": "also called hIL-6R; biotin-labeled hIL-6R", "T1 sequence": "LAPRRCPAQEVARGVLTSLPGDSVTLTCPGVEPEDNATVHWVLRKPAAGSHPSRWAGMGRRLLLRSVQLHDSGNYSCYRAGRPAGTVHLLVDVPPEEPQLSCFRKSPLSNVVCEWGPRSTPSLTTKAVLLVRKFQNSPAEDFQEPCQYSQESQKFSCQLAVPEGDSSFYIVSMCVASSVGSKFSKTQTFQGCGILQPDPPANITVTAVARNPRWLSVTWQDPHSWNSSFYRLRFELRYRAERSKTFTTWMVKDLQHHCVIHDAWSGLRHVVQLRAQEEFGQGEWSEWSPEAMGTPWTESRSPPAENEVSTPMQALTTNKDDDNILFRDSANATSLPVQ", "assay": "ELISA: biotin-labeled hIL-6R on a streptavidin plate, purified IgG, absorbance 450 nm; with 1 mM kynurenine, tryptophan, phenylalanine, anthranilic acid, 3-hydroxykynurenine, kynurenic acid, or none (Table 14)"}, "human IL-6 receptor [2]": {"target": "T1, human IL-6 receptor", "assay": "SPR (Biacore T200), antibody captured on protein A, hIL-6R as analyte, 100 µmol/L kynurenine, 25 C; 100 µmol/L kynurenine; Biacore, antibody captured, hIL-6R as analyte", "description": "An appropriate amount of protein A (Invitrogen) was immobilized onto Sensor chip CM5 (GE Healthcare) by the amine coupling method. The antibody of interest was captured onto the sensor chip, and the antigen hIL-6R was allowed to interact. […] The interaction with the antigen hIL-6R was measured at 25° C. hIL-6R was diluted with the running buffer, the running buffer containing 100 μmol/L kynurenine, or, as a control, the running buffer containing 10 mmol/L ATP.\nThen, the running buffer was run at a flow rate of 10 μL/min for one minute to observe the dissociation of hIL-6R from the antibody. Next, 10 mmol/L glycine-HCl, pH 1.5, was injected at a flow rate of 30 μL/min for 30 seconds to regenerate the sensor chip. […] Each parameter was calculated using Biacore T200 Evaluation Software (GE Healthcare)."}, "human IL-6 receptor [3]": {"target": "T1, human IL-6 receptor", "assay": "SPR (Biacore T200), hIL-6R amine-coupled on CM5, antibody as analyte, equilibrium values, 1 mM ATP, 25 C; 1 mM ATP; Biacore, hIL-6R on CM5, antibody concentration series, 25 C", "experimental": "The running buffer used was 20 mmol/L ACES, 150 mmol/L NaCl, 0.05% (w/v) Tween20, pH 7.4. The assay was performed at 25° C. hIL-6R was immobilized onto Sensor chip CM5 by amine coupling, and interacted with the antibodies as an analyte for 120 seconds to observe changes in the amount of binding. Antibodies were diluted with the running buffer or the running buffer added with any one of ATP, ADP, AMP, cAMP, and adenosine (ADO). The final concentration of each small molecule was adjusted to 1 mM, and the final concentration of the antibody was adjusted to 1 μM. Meanwhile, under the 1 mM ATP condition, the assay was carried out with a series of stepwise antibody concentrations. The dissociation constant KD (mol/L) of each clone for hIL-6R was calculated from a plot of equilibrium values against antibody concentration. The parameters were calculated using the Biacore T200 Evaluation Software (GE Healthcare)."}, "human serum albumin": {"target": "T2, human serum albumin (human, UniProt P02768 25-609, biotin-labeled antigen (position not given))", "T2 construct": "also called HSA", "assay": "phage ELISA: biotin-labeled HSA on a streptavidin plate, purified Fab-displaying phage, HRP anti-M13 antibody, absorbance 450 nm; with or without 10 mM ATP and adenosine"}}, "data": [{"binder": "GC413 (antibody, V domains shown, also called anti-human glypican 3 antibody GC413; negative control) VH: QVQLVQSGAEVKKPGASVKVSCKASGYTFTDYEMHWIRQPPGQGLEWIGAIDPKTGDTAYSQKFKGRVTLTADKSTSTAYMELSSLTSEDTAVYYCTRFYSYTYWGQGTLVTVSS VL: DIVMTQSPLSLPVTPGEPASISCRSSQSLVHSNRNTYLHWYQQKPGQAPRLLIYKVSNRFSGVPDRFSGSGSGTDFTLKISRVEAEDVGVYYCSQNTHVPPTFGQGTKLEIK", "values": [{"measurement": "binding result", "setting": "human IL-6 receptor [1]", "value": "no binding (tested: 2.5 µg/mL)"}]}, {"binder": "6RNMSC1-2_F02 (antibody, human IgG1, V domains shown, Variable region genes were inserted into a human IgG1/Kappa expression plasmid; also called clone 6RNMSC1-2_F02; antibody 6RNMSC1-2_F02) VH: QVQLVQSGAEVKKPGSSVKVSCKASGGTFSSYAISWVRQAPGQGLEWMGGIIPIFGTANYAQKFQGRVTITADESTSTAYMELSSLRSEDTAVYYCARDAPVVARPRGAFDIWGQGTMVTVSS VL: DIVMTQTPLSSPVTLGQPASISCRSSQSLVHSDGNTYLSWLQQRPGQPPRLLIHEISNRFSGVPDRFSGSGAGTNFTLKISRVEAEDVGVYYCMQATQFPRTFGQGTKVEIK", "values": [{"measurement": "Kd", "setting": "human IL-6 receptor [2]", "value": 1500, "unit": "nM"}]}, {"binder": "6RAD2C1-4_001 (antibody, human IgG1, lambda, V domains shown, also called 6RAD2C1-4_01) VH: EVQLVESGGDLVKPGGGLRLSCAASGFTFSGHTMNWVRQAPGKGLEWVSSISSRSNYIYYADSVKGRFTISRDNAKNSLYLQMNSLRAEDTAVYYCARYGRLHDRNWVFDYWGQGTLVTVSS VL: QSALTQPPSASGSPGQTVTISCTGTSTDVGDYNYVSWYQQHPGKAPKLMIYQVSKKPSGVPDRFSGSKSGNTASLTVSGLQAEDEADYFCSSRSYGAGVVFGGGTKLTVLG", "values": [{"measurement": "Kd", "setting": "human IL-6 receptor [3]", "value": 300, "unit": "nM"}]}, {"binder": "6RAD2C1-4_076 (antibody, human IgG1, lambda, V domains shown, also called 6RAD2C1-4_76) VH: EVQLVESGGDLVKPGGGLRLSCAASGFTFSGYTMNWVRQAPGKGLEWVSSISSRSSYIDYADSVKGRFTISRDNAKNSLYLQMNSLRAEDTAVYYCARYGALGQRNWVFDYWGQGTLVTVSS VL: QSALTQPPSASGSPGQTVTISCTGTSTDVGDYNYVSWYQQHPGKAPKLMIYQTSKRPSGVPDRFSGSKSGNTASLTVSGLQAEDEADYFCSSRSIKHPVFGGGTKLTVLG", "values": [{"measurement": "Kd", "setting": "human IL-6 receptor [3]", "value": 250, "unit": "nM"}]}, {"binder": "6RDL3C1-4_085 (antibody, human IgG1, lambda, V domains shown, also called 6RDL3C1-4_85) VH: EVQLVESGGDLVKPGGGLRLSCAASGFTFSGHTMNWVRQAPGKGLEWVSSISSRSNYIYYADSVKGRFTISRDNAKNSLYLQMNSLRAEDTAVYYCARYGRLHDRNWVFDYWGQGTLVTVSS VL: QSALTQPPSASGSPGQTVTISCTGTSTDVGDYNYVSWYQQHPGKAPKLMIYQVSKKPSGVPDRFSGSKSGNTASLTVSGLQAEDEADYFCSSRSYGAGVVFGGGTKLTVLG", "values": [{"measurement": "Kd", "setting": "human IL-6 receptor [3]", "value": 390, "unit": "nM"}]}, {"binder": "6RAD2C1-4_005 (antibody, human IgG1, lambda, V domains shown, also called 6RAD2C1-4_05) VH: EVQLVESGGDLVKPGGGLRLSCAASGFTFSTHTMNWVRQAPGKGLEWVSSISSRSSYIHYADSVKGRFTISRDNAKNSLYLQMNSLRAEDTAVYYCARFGKLGERNWVFDYWGQGTLVTVSS VL: QSALTQPPSASGSPGQTVTISCTGTSTDVGDYNYVSWYQQHPGKAPKLMIYQVSKKPSGVPDRFSGSKSGNTASLTVSGLQAEDEADYFCSVRSDGHGPMFGGGTKLTVLG", "values": [{"measurement": "Kd", "setting": "human IL-6 receptor [3]", "value": 340, "unit": "nM"}]}, {"binder": "6RAD2C1-4_026 (antibody, human IgG1, lambda, V domains shown, also called 6RAD2C1-4_26) VH: EVQLVESGGDLVKPGGGLRLSCAASGFTFSGYTMNWVRQAPGKGLEWVSSISSRSNYAHYADSVKGRFTISRDNAKNSLYLQMNSLRAEDTAVYYCARYGRLGDRNWVFDYWGQGTLVTVSS VL: QSALTQPPSASGSPGQTVTISCTGTSTDVGAYNYVSWYQQHPGKAPKLMIYKVSKKPSGVPDRFSGSKSGNTASLTVSGLQAEDEADYFCSLRAATTGVLFGGGTKLTVLG", "values": [{"measurement": "Kd", "setting": "human IL-6 receptor [3]", "value": 210, "unit": "nM"}]}, {"binder": "6RAD2C1-4_011 (antibody, human IgG1, lambda, V domains shown, also called 6RAD2C1-4_11) VH: EVQLVESGGDLVKPGGGLRLSCAASGFTFSGHTMNWVRQAPGKGLEWVSSISSRSSYIYYADSVKGRFTISRDNAKNSLYLQMNSLRAEDTAVYYCARYGALGQMNWVFDYWGQGTLVTVSS VL: QSALTQPPSASGSPGQTVTISCTGTSTDVGDYNYVSWYQQHPGKAPKLMIYSVSKRPSGVPDRFSGSKSGNTASLTVSGLQAEDEADYFCSSRSSSMNVLFGGGTKLTVLG", "values": [{"measurement": "Kd", "setting": "human IL-6 receptor [3]", "value": 230, "unit": "nM"}]}, {"binder": "HSADSA1-6_020 (Fab, V domains shown, also called clone HSADSA1-6_020) VH: EVQLVESGGDLVKPGGGLRLSCAASGFTFSSHTMNWVRQAPGKGLEWVSSISSRSNHATYADSVKGRFTISRDNAKNSLYLQMNSLRAEDTAVYYCARFGKKGRYLWVFDYWGQGTLVTVSS VL: QSALTQPPSASGSPGQTVTISCTGTSSDVGDYNYVSWYQQHPGKAPKLMIYYVSKRPSGVPDRFSGSKSGNTASLTVSGLQAEDEADYFCSLTTDSLNPVFGGGTKLTVL", "values": [{"measurement": "binding result", "setting": "human serum albumin", "value": "binds"}]}, {"binder": "6RAD2C1-4_030 (antibody, human IgG1, lambda, V domains shown, also called 6RAD2C1-4_30) VH: EVQLVESGGDLVKPGGGLRLSCAASGFTFSSYTMNWVRQAPGKGLEWVSSISSRSGYAYYADSVKGRFTISRDNAKNSLYLQMNSLRAEDTAVYYCARFGALNTLNWVFDYWGQGTLVTVSS VL: QSALTQPPSASGSPGQTVTISCTGTSTDVGDYNYVSWYQQHPGKAPKLMIYQVSKKPSGVPDRFSGSKSGNTASLTVSGLQAEDEADYFCSTRTANAGVLFGGGTKLTVLG", "values": [{"measurement": "Kd", "setting": "human IL-6 receptor [3]", "value": 330, "unit": "nM"}]}]}
